For data set [1], the target named is E1o (S. scrofa full-length E1o, GST tag cut off) (S. scrofa). As to the kind of experiment: SPR. (Surface plasmon resonance follows binding to a sensor surface in real time, without labels.)
Data set [2] concerns the molecule itself. As to the kind of experiment: cryo-electron tomography with subtomogram averaging.

For “E3 (S. scrofa full-length E3, GST tag cut off) (from UniProt P09623 36-509) (natural protein)”, the Kd (commonly the constant that tells how readily two partners part at equilibrium) in data set [1] was 1840 nM.

B1: E3 subunit (dihydrolipoyl dehydrogenase) of native 2-oxoglutarate dehydrogenase complex from Sus scrofa heart (natural protein)
chain: ADQPIDADVTVIGSGPGGYVAAIKAAQLGFKTVCIEKNETLGGTCLNVGCIPSKALLNNSHYYHMAHGKDFASRGIEMSEVRLNLEKMMEQKSNAVKALTGGIAHLFKQNKVVRVNGYGKITGKNQVTATKADGSTEVINTKNILIATGSEVTPFPGITIDEDTVVSSTGALSLKKVPEKMVVIGAGVIGVELGSVWQRLGADVTAVELLGHVGGIGIDMEVSKNFQRILQKQGFKFKLNTKVIGATKKSDGNIDVSIEAASGGKAEVITCDVLLVCIGRRPFTQNLGLEELGIELDPRGRIPVNTRFQTKIPNIYAIGDVVAGPMLAHKAEDEGIICVEGMAGGAVHIDYNCVPSVIYTHPEVAWVGKSEEQLKEEGIEYKVGKFPFAANSRAKTNADTDGMVKILGQKSTDRVLGAHIIGPGAGEMINEAALALEYGASCEDIARVCHAHPTLSEAFREANLAASFGKAINF
On to B1, for which, in data set [2], the binding result was “binds”.
